Assay results: paper PMC9159934

Molecular target: BsaXI specificity subunit, WT: TRD1-CR1-TRD2-CR2 (Bacillus stearothermophilus 25B (Geobacillus sp. 25B))
Test: co-purification by chromatography + SDS-PAGE band densitometry; RM and S expressed separately as intein-CBD fusions, combined and purified together over chitin, DEAE, heparin, Source 15S, Source 15Q and gel filtration (Superdex 75); RM:S ratio estimated from molecular mass and band intensity on SDS-PAGE (Bio Rad gel imaging software)

- stoichiometry N: 2 RM per S
Substance: BsaXI restriction-modification subunit (RM fusion) (enzyme)
